Test results from article PMC7984725 (Biochemistry, 2018).

Target: human linker histone H1.0 (human, UniProt P07305 1-194)
Assay: ITC

human linker histone H1.0, sequence (P07305 whole entry): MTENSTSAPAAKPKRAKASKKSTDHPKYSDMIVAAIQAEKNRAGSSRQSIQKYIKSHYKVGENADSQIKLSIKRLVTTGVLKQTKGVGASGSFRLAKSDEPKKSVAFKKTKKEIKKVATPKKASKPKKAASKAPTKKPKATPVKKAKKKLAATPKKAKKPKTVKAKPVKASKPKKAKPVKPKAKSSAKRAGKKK

- Kd: 460 nM
- stoichiometry N: 1
B1: prothymosin-α (ProTα) (natural protein, UniProt P06454 1-111, looked up)
chain: MSDAAVDTSSEITTKDLKEKKEVVEEAENGRDAPANGNAENEENGEQEADNEVDEEEEEGGEEEEEEEEGDGEEEDGDEDEEAESATGKRAAEDDEDDDVDTKKQKTDEDD
